The values that follow are results of earlier work, collected in patent US20190298804A1, “ACTIVATION OF THE ENDOGENOUS ILEAL BRAKE HORMONE PATHWAY FOR ORGAN REGENERATION AND RELATED COMPOSITIONS, METHODS OF TREATMENT, DIAGNOSTICS, AND REGULATORY SYSTEMS” (VOLANT HOLDINGS GMBH, priority 2013, published 2019).

The data set has as its system MIN-6 cells. The conditions noted are these: immunoprecipitation and western blotting. A general note: In western blotting, separated proteins are transferred to a membrane and probed.

B1: BTC: member of the epidermal growth factor family (protein, UniProt P35070 32-111, looked up)
Betacellulin: DGNSTRSPETNGLLCGDPEENCAATTTQSKRKGHFSRCPKQYKHYCIKGRCRFVVAEQTPSCVCDEGYIGARCERVDLFY
modifications: Betacellulin
notes: member of the epidermal growth factor family
For B1, the “phosphorylation of EGF receptors” value was “induced phosphorylation of only ErbB-1 and ErbB-2”.
